Test results published in patent US20110268740A1.

B1: scFv-F052-msFcγ2c (Fc fusion)
chain: DADPAQAAERVMTQSPDALAVSLGERATINCKSSQSLLYSSNNKNYLAWYQKKPGQPPKLLIYWASTRESGVPDRFSGSGSGTEFTLTINSVQAEDVAVYYCQQYFMTPITFGQGTKLEIKGGSSRSSSSGGGGSGGGGQVQLQESGGALVQPGRSLRLSCRTSGLNFGDYPINWVRQAPGKGLEWVGFIKSKSYGVTTEFAASVEGRFTISRDDSRGIAYLQMNSLKTEDTAVYYCTSSSGFLYYFDYWGQGTLVTVSSASTKGPSVTSGQAGRKLEPRVPITQNPCPPLKECPPCAAPDLLGGPSVFIFPPKIKDVLMISLSPMVTCVVVDVSEDDPDVQISWFVNNVEVHTAQTQTHREDYNSTLRVVSALPIQHQDWMSGKEFKCKVNNRALPSPIEKTISKPRGPVRAPQVYVLPPPAEEMTKKEFSLTCMITGFLPAEIAVDWTSNGRTEQNYKNTATVLDSDGSYFMYSKLRVQKSTWERGSLFACSVVHEGLHNHLTTKTISRSLGK
B2: scFv-D005-msFcγ2c (Fc fusion)
chain: DADPAQAAELVMTQSPDSLAVSLGERATINCKSSQSVLYTSNNKNYLGWYQQKPGQPPNLLIYWASTRESGVPDRFSGSGSGTDFTLTINSVQAEDVAVYYCQQYFMTPITFGQGTRLEIKGGSSRSSSSGGGGSGGGGEVQLVESGGALVQPGRSLRLSCRTSGLNFGDYPINWVRQAPGKGLEWVGFIKSKSYGVTTEFAASVEGRFTISRDDSRGIAYLQMNSLKTEDTAVYYCTSSSGFLYYFDYWGQGTLVTVSSASTKGPSVTSGQAGRKLEPRVPITQNPCPPLKECPPCAAPDLLGGPSVFIFPPKIKDVLMISLSPMVTCVVVDVSEDDPDVQISWFVNNVEVHTAQTQTHREDYNSTLRVVSALPIQHQDWMSGKEFKCKVNNRALPSPIEKTISKPRGPVRAPQVYVLPPPAEEMTKKEFSLTCMITGFLPAEIAVDWTSNGRTEQNYKNTATVLDSDGSYFMYSKLRVQKSTWERGSLFACSVVHEGLHNHLTTKTISRSLGK

How the values were obtained:
[1] = molecular target: M2e consensus peptide (free, soluble) (Influenza A virus (consensus of H1, H2 and H3 subtypes of human Influenza A viruses)); assay: Friguet ELISA, free M2e peptide in solution
[2] = molecular target: M2e-short (Influenza A virus (consensus)); assay: ELISA, apparent affinity, purified scFv-msFcγ2c on immobilised M2e-short

Binder | Kd [1] [µM] | EC50 [2] [nM] | EC50 (scFv-D005-msFcγ2c) [µM] | EC50 (scFv-F052-msFcγ2c) [µM]
B1 | 0.005 | 0.0628 | – | –
B2 | 0.004 | 0.0809 | – | –
SLLTEVETPIRNEWGCRCNDSSD (modifications not checked) [M2e consensus peptide (free, soluble)] | – | – | 18.8 | 22
SLLTEVETPIRNEWGC (modifications not checked) [M2e-short] | – | – | 27.5 | 46.8
